Measured values as given in patent US20240368275A1 (ELPIS BIOPHARMACEUTICALS, published 2024).

T1: full-length human Nectin4 with C-terminal flag and Myc tags on CHO cells (human, UniProt Q96NY8 32-510)
T1 construct: whole, on cells; also called Nectin4/CHO; CHO/Nectin4; not shown: C-terminal flag and Myc tags of pCMV6-Entry vector
T1 sequence (looked up): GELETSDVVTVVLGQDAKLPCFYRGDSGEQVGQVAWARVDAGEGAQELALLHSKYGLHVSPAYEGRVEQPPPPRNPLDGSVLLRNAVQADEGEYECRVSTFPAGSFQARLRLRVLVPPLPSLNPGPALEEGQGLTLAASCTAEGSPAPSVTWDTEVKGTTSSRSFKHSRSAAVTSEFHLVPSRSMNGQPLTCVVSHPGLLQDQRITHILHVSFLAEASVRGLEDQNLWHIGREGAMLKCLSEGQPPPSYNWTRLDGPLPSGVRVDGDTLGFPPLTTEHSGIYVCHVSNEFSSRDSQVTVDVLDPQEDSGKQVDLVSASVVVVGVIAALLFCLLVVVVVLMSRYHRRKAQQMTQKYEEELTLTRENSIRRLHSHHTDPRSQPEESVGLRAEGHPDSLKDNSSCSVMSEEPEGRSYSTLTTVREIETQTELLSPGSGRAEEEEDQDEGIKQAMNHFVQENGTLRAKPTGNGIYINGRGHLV

T2: human Nectin4-Fc fusion protein (human, UniProt Q96NY8 32-349)
T2 construct: Recombinant protein coated in the scFv ELISA and captured on the anti-hFc chip in the scFv SPR; also called recombinant Nectin4-Fc fusion protein; human Nectin4-Fc protein; not shown: Fc part
T2 sequence (looked up): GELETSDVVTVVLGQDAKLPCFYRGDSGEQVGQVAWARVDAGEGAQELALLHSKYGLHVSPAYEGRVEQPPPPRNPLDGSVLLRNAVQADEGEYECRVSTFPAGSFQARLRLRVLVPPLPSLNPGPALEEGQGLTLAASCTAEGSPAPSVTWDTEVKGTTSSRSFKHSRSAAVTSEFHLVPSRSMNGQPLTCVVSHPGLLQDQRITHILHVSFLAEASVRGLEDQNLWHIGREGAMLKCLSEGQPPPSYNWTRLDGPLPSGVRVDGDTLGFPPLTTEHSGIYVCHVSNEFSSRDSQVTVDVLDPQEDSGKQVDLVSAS

B1: 2021EP032-E06 scFv (scFv, V domains shown)
VH: QVQLVESGAEVKKPGASVKVSCKASGYTFTGYYMHWVRQAPGQGLEWMGRINPNSGGTNYAQKFQGRFTISRDNSKTTLFLQMNSLRAEDTAVYYCAKADYQWVGAIFRLNAFDIWGQGTMVTVSS
VL: VIWMTQSPSSLSASVGDRVTITCRASQGISNYLAWYQQKPGKVPKLLIYAASTLQSGVPSRFSGSGSGTDFTLTISSLQPEDVATYYCQKYNSAPYTFGQGTKLEIK
B2: 2021EP032-D10 scFv (scFv, V domains shown)
VH: EVQLVESGAEVKKPGSSVKVSCKASGGTFSSYAISWVRQAPGQGLEWMGGIIPIFGTANYAQKFQGRVAITADESTSTAYMELSSLRSEDTAVYYCARDLAIVYGSGSYYNHHPRIDYYYYGMDVWGQGTTVTVSS
VL: QSVLTQPRSVSGSPGQSVTISCAGTSSDIGAYNYVSWYQQHPGKAPTLMINDVSKRPSGVPDRFSGSKSGNTASLTISGLQAEDEGDYYCFSYAGSYTLVFGGGTQLTVL
B3: 2020EP034-E01 scFv (scFv, V domains shown)
VH: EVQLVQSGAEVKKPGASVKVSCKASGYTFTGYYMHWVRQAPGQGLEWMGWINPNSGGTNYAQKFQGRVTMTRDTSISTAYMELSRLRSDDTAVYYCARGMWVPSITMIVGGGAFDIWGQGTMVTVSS
VL: DVVMTQSPLSLPVTPGEPASMSCRSSESLLHRNGFNYLDWYVQRPGQSPKLLIYMGSYRASGVPDRFSGRGSGTDFALKISRVEAEDVGVYYCMQALQSPPLYTFGPGTKLEIK
B4: 2021EP030-B10 scFv (scFv, V domains shown)
VH: QVQLVESGGDLVNPGRSLRLACTGAGFTFGDYAVSWFRQAPGKGLEWVGFIESKPYGETREYAASVRGRFTISRDDSKGIAYLQMNGLKTEDTGVYYCSSVVAWVAYWGQGTLVTVSS
VL: AIQLTQSPSSLSASIGDRVTITCRASQSVTTYLNWYHQKPGKAPTFLIYGTSALQSGVPSRFSGSGSGTDFTLTISSLQPEDFGIYYCQQSYSLPPTFGGGTNVQIR
B5: 2021EP029-C04 scFv (scFv, V domains shown)
VH: QLQLQQSGPGLVKPSQTLSLTCAISGDSVSSNRAAWSWIRQSPSRGLEWLGRTYYRSKWYNDYAVSVESRIIINPDTSKNQFSLQLNPVTPEDTAVYYCARGSFESTWLWGQGTLVTVSS
VL: QAVVTQPHSVSESPGKTVTISCTRSGGSIANNYVHWYQQRPGSFPTALIYQDNQRRSGVPDRFSGSIDSSSNSASLTISGLKTEDEAEYYCQSFDNNNVVFGGGTQLTVL
B6: 2020EP47-F02 scFv (scFv, V domains shown)
VH: QVQLQQWGAGLLKPSETLSLTCAVYGGSFSGYYWSWIRQPPGKGLEWIGEINHSGSTNYNPSLKSRVTISVDTSKNQFSLKLSSVTAADTAVYYCARGWYLGFDYWGQGTLVTVSS
VL: QSVLTQPRSVSGSPGQSVTISCTGTSRDVGGYDYVSWYQQYPGKAPKLMISGVSERPSGVPDRFTGSRSANTASLTISGLQTDDEANYYCCSYAGSFTWVFGDGTKLTVL
notes: also called EP047-F02
B7: 2021EP030-C11 scFv (scFv, V domains shown)
VH: QMQLVQSKPEVKKPGTSVKVSCKASGFTFTSSAVQWVRQARGQRLEWIGWIVVGSGNTNYAQKFQERVTITRDMSTSTAYMELSSLRSEDTAVYYCAADGDYDIEGALDYWGQGTLVTVSS
VL: EIVLTQSPAILSLSPGERATLSCRASQSVSSYLAWYQQKPGQAPRLLIYDASNRATGIPARFSGSGSGTDFTLTISSLEPEDFAVYYCQQRSNWITFGGGTKVEIK
B8: 2020EP034-B09 scFv (scFv, V domains shown)
VH: EVQLVQSGAEVKKPGASVKVSCKASGYTFTGYYMHWVRQAPGQGLEWMGRINPNSGGTNYAQKFQGRVTMTRDTSISTAYMELSGLRSDDTAVYFCARVTYNIGWYIDYWGQGTLVTVSS
VL: QAVVTQPPSVSVAPGKTATITCGGNNIGSKGVHWYQQKPGQAPVLVIYYDTDRPSGIPERLSGSNSGNTATLTISRVEAGDEADYYCQVWDSSSDHPVFGGGTKLTVL
B9: 2021EP030-F02 scFv (scFv, V domains shown)
VH: QVQLQESGPGLVKPSETLSLTCTVSGGSISSSSYYWGWIRQPPGKGLEWIGSIYYSGSTYYNPSLKSRVTISVDTSKNQFSLKLSSVTAADTAVYYCARQANQVVPAAIPWAKPGGTPPNWFDPWGQGTLVTVSS
VL: QLVLTQPPSVSVAPGETARITCGGNNIGSKSVHWYQQKPGQAPVLVIYYDSARPSGIPERVSGSNSGNTATLTISRVEAGDEADYYCQVWDSSSDHPRVFGTGTKLTVL
B10: 2021EP023-D06 scFv (scFv, V domains shown)
VH: QVQLVESGAEVKKPGSSVKVSCKASGGTFSSYAISWVRQAPGQGLEWMGGIIPIFGTANYAQKFQGRVTITADESTSTAYMELSSLRSEDTAVYYCARSRPVRGAYYWGQGTLVTVSS
VL: DIQMTQSPSSLSASVGDRVTITCRASQIVNSNYLNWYQQKPGKAPNLLIYGVSNLQVGVPSRFSGSGSGTDFTLSISSLQVEDSATYYCQQSYTTPRYSFGQGTKLEIRR
notes: Purified scFv with C-terminal flag and 6xHis tag

The binders below were run against T1, full-length human Nectin4 with … (assay: flow cytometry, scFv on Nectin4/CHO cells).
Method: To determine whether anti-Nectin4 scFvs bind to Nectin4 expressing cells, 200 nM of purified anti-Nectin4 scFv antibodies were diluted in full medium and incubated with Nectin4/CHO and CHO cells in 96 wells plate on ice for 1 hour. Cells were spun down at 1200 rpm for 5 minutes at 4° C. to remove primary antibodies. Cells were then washed once with 200 uL of full medium per well. Samples were detected with premixed anti-His Biotin Streptavidin Alexa fluor 647 by adding 100 uL of diluted secondary antibody and incubated at 4° C. for 30 minutes in the dark. Samples were spun down at 1200 rpm for 5 minutes at 4° C. and washed twice with 200 uL of 1×PBS per well. Reconstituted samples in 200 uL of 1×PBS and read on Attune NxT cytometer. Analysis was done by Attune NxT software plotting the overlay histogram of anti-Nectin4 scFvs binding onto both negative and target cell lines.

EC50 | Binder
< 0.001 nM | B1
0.29 nM | B2
> 50 nM | B3
24.2 nM | B4
0.001 nM | B5
4.51 nM | B6
13 nM | B7
0.36 nM | B8
0.194 nM | B9

These binders were tested against T2, human Nectin4-Fc fusion protein (assay: SPR Biacore T200, Nectin4-Fc captured on anti-hFc chip, scFv injected).
Method: Kinetic analysis of anti-Nectin4 scFvs has been assessed by SPR technology with Biacore T200. The assay was run with Biacore T200 control software version 2.0. Anti-human Fc antibody was immobilized on flow cell 1 and 2 of CM5 sensor chip. For each cycle, 1 ug/mL of human Nectin4-Fc protein was captured for 60 seconds at flow rate of 10 ul/min on flow cell 2 in 1×HBSP buffer on anti-hFc sensor chip. 2-fold serial diluted HIS tag purified anti-Nectin4 scFv was injected onto both reference flow cell 1 and Nectin4-Fc captured flow cell 2 for 150 seconds at flow rate of 30 ul/min followed by wash for 300 seconds. The flow cells were then regenerated with Antibody regeneration buffer (GE) for 30 seconds at flow rate of 30 ul/mins. 8 concentration points from 300-0 nM was assayed per anti-Nectin4 scFv in a 96 well plate. The kinetics of scFvs binding to Nectin4 protein was analyzed with Biacore T200 evaluation software version 3.0. The specific binding response unit was derived from subtraction of binding to reference flow cell 1 from Nectin4 captured flow cell 2.

Kd | koff | kon | Binder
10.9 nM | 0.000406 s⁻¹ | 37000 M⁻¹ s⁻¹ | B3
0.407 nM | 0.000195 s⁻¹ | 480000 M⁻¹ s⁻¹ | B10
55.5 nM | 0.000262 s⁻¹ | 4710 M⁻¹ s⁻¹ | B7
1.47 nM | 0.00018 s⁻¹ | 122000 M⁻¹ s⁻¹ | B8
1.85 nM | 0.000215 s⁻¹ | 116000 M⁻¹ s⁻¹ | B9

These binders were tested against T2, human Nectin4-Fc fusion protein (assay: ELISA, coated human Nectin4-Fc, scFv titrated, anti-Flag HRP).
Method: An ELISA assay was developed to determine the EC₅₀ of anti-Nectin4 antibodies. Briefly, 384 well plate was immobilized with human Nectin4-Fc at final concentration of 2 ug/mL in 1×PBS in total volume of 25 uL per well. The plate was incubated overnight at 4° C. followed by blocking with 80 uL of superblock per well for 1 hour. Purified anti-Nectin4 scFvs were 2-fold serial titrated from 200 nM. 25 uL was added to human Nectin4 immobilized wells and incubated for 1 hour with shaking. The Nectin4 binding was detected by adding 25 uL of anti-Flag HRP diluted at 1:5000 in 1×PBST. In between each step, the plate was washed 3 times with 1×PBST in a plate washer. The plate was then developed with 20 uL of TMB substrate for 5 mins and stopped by adding 20 uL of 2 N sulfuric acid. The plate was read at OD450 nm Biotek plate reader and then plotted in Prism 8.1 software.

EC50 | Binder
0.412 nM | B1
8.76 nM | B2
0.857 nM | B5
291 nM | B7
5.07 nM | B8
2.97 nM | B9
